Experimental data published in US20080299140A1, “Immunogenic Composition and Peptide Sequences for Prevention and Treatment of an Hsv Condition” (priority 2002, published 2008).
No end group written: not given here.

Biological target: HLA-DR(α1*0101,α1*1301) (human)
Test: reference IC50 of the tracer peptide in the HLA class II competition assay

B1: B1 (21-36) (peptide)
peptide: TERVRLVTRHIYNREE
modifications: also: biotinylated when used as tracer
IC50: 276 nM
